Non-standard residues stand in square brackets, D forms with d. No end group written: not given here. AEEA = NCCOCCOCC(=O)O
Legend:
collagen I = biological target: T1, collagen I (Rattus norvegicus, UniProt P02454+P02466); test: Surface binding of biotinylated molecules to collagen I (streptavidin-HRP); conditions: for collagen I binding after incubation (deterioration of binding activity over time): after 2 weeks in 1% BSA at room temperature
T1 construct: rat tail collagen I (Corning); purchased Corning; host or cells: rat tail (tissue-extracted)
Procedure: (§1) High-binding 96-well plates (Corning) were coated with 50 μg/mL rat tail collagen I (Corning) at 4° C. overnight or 2% reduced growth factor Matrigel (Corning #354230) in basal EBM media for 30 minutes at 37° C. and rinsed 3× with PBS before blocking non-specific binding with 1% Bovine Serum Albumin (BSA) for 1 hour at room temperature. For fibrinogen surfaces, a fibrinogen coating solution of ˜2.75 mg/mL fibrinogen (Sigma) and 5.5 μg/mL aprotinin (Sigma) was incubated at 4° C. overnight in high-binding plates. Biotinylated samples dissolved in 1% BSA were allowed to bind to the surface for 30 minutes at 37° C. on a plate shaker. After 3 washes with PBS, wells were incubated with 1:200 streptavidin-HRP in 1% BSA, rinsed 3× with PBS, developed with a 1:1 A to B color solution for 20 minutes, stopped with the addition 2N H2SO4, and read on a Spectramax M5 platereader for absorbance at 450 nm with 540 nm correction.
(§2) The ability of DS-SILY4 to bind to various protein surface coatings was investigated using streptavidin-HRP detection of bound biotinylated DS-SILY4 molecules. Here we studied collagen and fibrinogen binding properties of the proteoglycan mimics since this proposed therapy is designed to target angiogenic activity to the wound site by tethering to extracellular matrix. Using standard surface coating procedures for collagen (50 μg/mL) and matrigel (2%), ˜7.5 μg/cm^2 rat tail collagen I and ˜28 μg/cm^2 matrigel were allowed to bind to a high bind plate.

[1] = tested on: matrigel (collagen IV/laminin); test: Surface binding of biotinylated molecules to matrigel (streptavidin-HRP); conditions: for matrigel binding after incubation (deterioration of binding activity over time): after 2 weeks in 1% BSA at room temperature; for matrigel binding affinity (relative): comparison between molecules
Procedure: as §1, §2

fibrinogen = biological target: T2, fibrinogen (Homo sapiens, UniProt P02671+P02675+P02679); test: Surface binding of biotinylated molecules to fibrinogen (streptavidin-HRP); conditions: biotinylated molecule, absorbance
T2 construct: purchased Sigma
T2 sequence (P02671 20-629 limits assumed): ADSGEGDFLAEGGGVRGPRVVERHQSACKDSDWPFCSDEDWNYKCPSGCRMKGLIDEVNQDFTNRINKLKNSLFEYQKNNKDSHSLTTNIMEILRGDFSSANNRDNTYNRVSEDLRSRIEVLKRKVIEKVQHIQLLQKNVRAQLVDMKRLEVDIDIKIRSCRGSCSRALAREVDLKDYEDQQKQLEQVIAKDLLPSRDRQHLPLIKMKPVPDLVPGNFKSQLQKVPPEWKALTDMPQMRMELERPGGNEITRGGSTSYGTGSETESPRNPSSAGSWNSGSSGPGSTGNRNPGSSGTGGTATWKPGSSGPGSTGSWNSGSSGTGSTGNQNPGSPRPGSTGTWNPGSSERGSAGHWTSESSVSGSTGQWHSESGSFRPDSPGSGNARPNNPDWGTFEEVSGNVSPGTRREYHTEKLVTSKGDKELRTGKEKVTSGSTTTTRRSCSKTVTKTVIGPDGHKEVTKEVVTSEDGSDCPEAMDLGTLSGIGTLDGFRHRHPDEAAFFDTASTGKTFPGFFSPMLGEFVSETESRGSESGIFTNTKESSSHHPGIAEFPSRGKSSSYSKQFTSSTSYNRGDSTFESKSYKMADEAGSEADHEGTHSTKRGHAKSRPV
T2 sequence (P02675 31-491): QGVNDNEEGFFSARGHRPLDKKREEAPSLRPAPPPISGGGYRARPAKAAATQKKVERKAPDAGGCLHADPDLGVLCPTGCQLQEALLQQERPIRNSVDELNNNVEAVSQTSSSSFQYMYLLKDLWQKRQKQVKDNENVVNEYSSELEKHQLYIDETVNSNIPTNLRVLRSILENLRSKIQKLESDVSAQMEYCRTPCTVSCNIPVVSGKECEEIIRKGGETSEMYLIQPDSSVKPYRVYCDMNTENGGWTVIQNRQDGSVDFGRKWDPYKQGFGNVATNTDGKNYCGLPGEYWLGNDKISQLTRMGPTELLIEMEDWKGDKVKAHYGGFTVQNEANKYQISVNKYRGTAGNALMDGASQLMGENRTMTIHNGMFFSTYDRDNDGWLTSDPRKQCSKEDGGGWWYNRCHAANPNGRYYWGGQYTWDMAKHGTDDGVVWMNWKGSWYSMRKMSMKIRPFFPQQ
T2 sequence (P02679 27-433 limits assumed): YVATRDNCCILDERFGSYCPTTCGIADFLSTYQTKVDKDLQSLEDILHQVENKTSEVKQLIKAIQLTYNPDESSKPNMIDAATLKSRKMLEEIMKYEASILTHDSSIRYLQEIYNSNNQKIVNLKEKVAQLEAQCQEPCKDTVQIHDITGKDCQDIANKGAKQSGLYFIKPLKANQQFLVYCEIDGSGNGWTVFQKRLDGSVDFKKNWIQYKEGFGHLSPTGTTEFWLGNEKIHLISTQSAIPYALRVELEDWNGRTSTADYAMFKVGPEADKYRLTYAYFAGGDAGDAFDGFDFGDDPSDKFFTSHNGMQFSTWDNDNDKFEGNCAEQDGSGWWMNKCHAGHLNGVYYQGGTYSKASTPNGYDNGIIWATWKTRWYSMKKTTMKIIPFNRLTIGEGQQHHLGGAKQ
Procedure: as §1
as §2, with “Using standard surface coating procedures for collagen (50 μg/mL) and matrigel (2%), ˜7.5 μg/cm^2 rat tail collagen I and ˜28 μg/cm^2 matrigel were allowed to bind to a high bind plate.” left out

HMVEC [2] = test: HMVEC proliferation in response to surface-bound molecules (alamarBlue); assay type: cell-based, human
Procedure: (§3) 50 μL, treatments dissolved in 1% BSA in PBS were added to a Biocoat Collagen I 96-well plate (Corning) and incubated for 30 minutes at 37° C. before washing 3 times with PBS to remove unbound treatment. […] To evaluate initial attachment, media was aspirated 5-8 hours after seeding and exchanged with alamarBlue® cell viability reagent (1:10, 110 μL/well, Molecular Probes) and incubated for 2.5 hours at 37° C. according to the manufacturers' protocol. 100 μL from each well was pipetted into a new plate and assayed for fluorescence at 560 nm excitation and 590 nm emission. Remaining reagent was aspirated and replaced with fresh media and the alamarBlue® viability assay was performed every 2 days thereafter for 1 week. To control for initial differences in HMVEC attachment, proliferation data is presented as the alamarBlue® fluorescence signal normalized to the signal at 8 hours.
Both soluble and bound forms of molecules would be present in a dynamic equilibrium in this initial experimental design and the two forms may produce differing effects, and thus we sought to investigate the effects of bound molecules alone. Furthermore, the bioactivity of a collagen-bound form would more directly reflect the application of a targeted pro-angiogenic therapy in a chronic wound. […]

HMVEC [3] = test: HMVEC attachment to surface-bound molecules (alamarBlue); assay type: cell-based, human; conditions: low cell densities, both 1 μM and 10 μM surface treatments
Procedure: as §3

[4] = tested on: chick chorioallantoic membrane; test: Ex ovo CAM assay, vascular invasion into collagen gels; assay type: in vivo; conditions: both 10 μM and 20 μM embedded gels, vs blank controls
Procedure: For experiments studying vascular invasion into collagen gels, 30 μL collagen I gels with an embedded 3 mm×3 mm nylon mesh (Fisher) were used. 4-5 gels were placed on each CAM, with 2-3 treatment gels of the same type and 2 blank gels as internal controls to correct for embryo variability. In some embryos, the nylon meshes were dyed to improve visualization of the mesh and vessels growing into the gel. Large (4 cm×10 cm) nylon meshes were dyed by reacting in 226 mL of a 77 mM acetic acid (Sigma) solution with 10 drops of green food coloring (McCormick) or 250 μL of 3 mg/mL Evans blue (Alfa Aesar) at 121° C. for 15 minutes in an autoclave, and then cut to 3 mm×3 mm squares for embedding. Gels were imaged daily through a Dino-Eye AM7025X camera installed on a stereomicroscope; for images more than 2 days after gel implantation, 0.25 mL PBS was pipetted on top of gels to help visualize vessels. […]
In an attempt to better visualize new vasculature invading the implanted collagen gels, we injected ˜100 μL 1 mg/mL high molecular weight fluorescent dextran (70 kDa RITC-dextran) into the CAM vessels 7 days after transplantation, cut out integrated collagen gels and surrounding membrane, and imaged with fluorescence microscopy. […]

platelets = test: Attachment of platelets to peptide-treated surfaces; assay type: cell-based; conditions: biotin-peptide on Avidin-coated wells
From the text: (§4) FIG. 33. Attachment of cells and platelets to LXW7 and GRGD (SEQ ID NO: 2) treated surfaces. (A) Images of attached HCAECs (left panels), THP-1 monocytes (middle panels) and platelets (right panels) on surfaces treated by D-Biotin (a-c) (control), LXW7 (d-f) or GRGD (SEQ ID NO: 2) (g-i). Scale bars in a, b, d, e, g and h are 50 μm. Scale bars in c, f and i are 20 μm. (B) The number of cells or platelets attached on different treated surfaces were quantified and statistical analyses were performed. Data were expressed as mean±standard deviation: **p<0.01 (n=4).
(§5) Using primary artery-derived ECs and blood-derived EPCs as living probes to screen One-Bead-One-Compound (OBOC) combinatorial peptide libraries, several high-affinity binding ligands against the αvβ3 integrin on the surface of EPCs/ECs were identified. […] The LXW7 peptide, when grafted to surfaces, supports adhesion and spreading of EPCs and human coronary ECs, but not platelets or monocytes. […] After washing with PBS and blocking with 1% BSA wells were ready for cell attachment with 5×10^4 HCAECs or THP-1 monocytes suspended in the respective maintenance medium, or freshly isolated platelets at a density of 5×10^7 platelets/cm^2 incubated for 16 h at 37° C., 5% CO2. […] Quantification of images was performed using the Image J software (NIH).

THP-1 monocytes = test: Attachment of THP-1 monocytes to peptide-treated surfaces; assay type: cell-based; conditions: biotin-peptide on Avidin-coated wells
From the text: as §4, §5

T1 sequence (P02454 152-1207 limits assumed): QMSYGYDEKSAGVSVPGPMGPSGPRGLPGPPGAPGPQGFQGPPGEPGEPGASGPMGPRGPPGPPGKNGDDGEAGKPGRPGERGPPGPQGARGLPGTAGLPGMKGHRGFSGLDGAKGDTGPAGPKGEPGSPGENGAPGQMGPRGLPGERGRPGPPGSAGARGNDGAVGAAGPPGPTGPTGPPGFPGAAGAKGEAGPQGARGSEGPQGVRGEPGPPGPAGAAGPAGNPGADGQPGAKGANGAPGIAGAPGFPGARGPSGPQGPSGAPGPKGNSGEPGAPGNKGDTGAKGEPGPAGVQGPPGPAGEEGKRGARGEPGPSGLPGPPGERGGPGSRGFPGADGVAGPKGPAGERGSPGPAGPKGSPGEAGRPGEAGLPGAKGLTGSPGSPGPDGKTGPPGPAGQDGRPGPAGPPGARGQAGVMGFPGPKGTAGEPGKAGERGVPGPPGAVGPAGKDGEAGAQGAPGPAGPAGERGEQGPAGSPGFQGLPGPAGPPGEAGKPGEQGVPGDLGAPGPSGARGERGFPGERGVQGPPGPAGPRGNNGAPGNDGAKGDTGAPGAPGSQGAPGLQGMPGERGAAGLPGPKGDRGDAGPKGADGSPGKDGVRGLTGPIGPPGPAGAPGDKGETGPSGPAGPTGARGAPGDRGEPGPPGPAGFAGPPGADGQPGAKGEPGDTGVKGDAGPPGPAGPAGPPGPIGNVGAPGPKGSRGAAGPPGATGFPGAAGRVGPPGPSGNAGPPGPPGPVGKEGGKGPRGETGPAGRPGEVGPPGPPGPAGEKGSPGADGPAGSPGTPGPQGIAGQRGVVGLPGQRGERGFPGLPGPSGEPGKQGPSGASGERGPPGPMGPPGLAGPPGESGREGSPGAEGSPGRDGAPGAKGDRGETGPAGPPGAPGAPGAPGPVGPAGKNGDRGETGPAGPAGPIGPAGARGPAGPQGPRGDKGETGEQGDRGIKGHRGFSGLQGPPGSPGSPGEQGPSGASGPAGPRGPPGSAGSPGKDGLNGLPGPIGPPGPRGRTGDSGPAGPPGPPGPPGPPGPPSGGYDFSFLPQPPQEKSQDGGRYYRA
T1 sequence (P02466 86-1125 limits assumed): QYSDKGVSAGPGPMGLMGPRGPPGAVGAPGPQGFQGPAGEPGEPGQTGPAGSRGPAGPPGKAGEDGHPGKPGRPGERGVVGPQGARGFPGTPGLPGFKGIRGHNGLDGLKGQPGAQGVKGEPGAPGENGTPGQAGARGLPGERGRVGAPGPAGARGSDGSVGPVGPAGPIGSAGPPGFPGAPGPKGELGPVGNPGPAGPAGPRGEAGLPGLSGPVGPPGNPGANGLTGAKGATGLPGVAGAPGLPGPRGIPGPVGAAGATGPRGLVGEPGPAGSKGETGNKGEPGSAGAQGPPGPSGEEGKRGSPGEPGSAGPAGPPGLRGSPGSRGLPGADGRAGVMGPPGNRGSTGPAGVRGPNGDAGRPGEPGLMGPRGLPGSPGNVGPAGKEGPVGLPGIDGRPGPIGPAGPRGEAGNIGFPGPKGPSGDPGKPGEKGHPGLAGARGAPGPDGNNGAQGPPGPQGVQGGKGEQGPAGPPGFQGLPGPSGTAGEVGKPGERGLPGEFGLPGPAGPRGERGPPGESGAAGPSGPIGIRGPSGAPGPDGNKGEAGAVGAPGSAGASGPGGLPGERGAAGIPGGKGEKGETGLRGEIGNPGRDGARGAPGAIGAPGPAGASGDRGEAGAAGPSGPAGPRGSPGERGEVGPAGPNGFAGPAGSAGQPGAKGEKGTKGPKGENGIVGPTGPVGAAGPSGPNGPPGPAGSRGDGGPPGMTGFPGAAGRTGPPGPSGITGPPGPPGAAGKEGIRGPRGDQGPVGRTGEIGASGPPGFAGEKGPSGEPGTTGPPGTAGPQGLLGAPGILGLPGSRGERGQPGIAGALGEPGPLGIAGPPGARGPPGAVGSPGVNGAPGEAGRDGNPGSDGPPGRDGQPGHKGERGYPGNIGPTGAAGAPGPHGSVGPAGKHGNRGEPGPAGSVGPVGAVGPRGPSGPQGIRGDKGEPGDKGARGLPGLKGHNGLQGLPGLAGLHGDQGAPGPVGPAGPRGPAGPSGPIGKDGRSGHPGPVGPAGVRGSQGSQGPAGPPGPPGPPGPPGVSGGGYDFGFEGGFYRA

Question: Which results are given for “(peg2V)2-DS-SILY4: pro-angiogenic decorin mimic, 2 peg2V and 4 SILY per DS (peptide 1 KLTWQELYQLKYKGI[AEEA][AEEA]GSG; peptide 2 RRANAALKAGELYKSILYGSG; also: conjugated to dermatan sulfate: 2 peg2V and 4 SILY per DS, attachment not given here)”?
Answer: collagen I binding after incubation (deterioration of binding activity over time) (collagen I): higher concentrations are needed to achieve the same binding; collagen I affinity (relative) (collagen I; comparison between molecules): highest collagen I and matrigel affinities; matrigel binding after incubation (deterioration of binding activity over time) [1]: higher concentrations are needed to achieve the same binding; matrigel binding affinity (relative) [1]: highest collagen I and matrigel affinities

Question: What does the source list for “DS-(peg2V)2: dermatan sulfate with 2 peg2V peptides per DS (KLTWQELYQLKYKGI[AEEA][AEEA]GSG; also: conjugated to dermatan sulfate, 2 peg2V per DS, attachment not given here)”?
Answer: collagen I affinity (relative) (collagen I; comparison between molecules): higher affinity for collagen I than DS-SILY4; collagen I binding capacity (relative) (collagen I; comparison between molecules): highest collagen I binding capacity of all the molecules studied; matrigel binding affinity (relative) [1]: similar

Question: What does the source list for “DS-SILY4: decorin mimic composed of a dermatan sulfate backbone and 4 SILY substitutions per DS (RRANAALKAGELYKSILYGSG; also: conjugated to dermatan sulfate, 4 SILY per DS, attachment not given here)”?
Answer: collagen I binding after incubation (deterioration of binding activity over time) (collagen I): this shift was also observed; binding capacity to collagen I (collagen I; biotinylated molecule, absorbance): 1.6 AU; binding capacity to fibrinogen (fibrinogen): 0.30 AU; endothelial proliferation vs untreated collagen (HMVEC [2]; 1 μM surface treatment): only statistically significant over no treatment when compared in media lacking VEGF; endothelial proliferation vs untreated collagen (HMVEC [2]; 10 μM surface treatment): significantly improved proliferation in media with and without VEGF; matrigel binding after incubation (deterioration of binding activity over time) [1]: increased matrigel binding capacity after the 2 week incubation; binding capacity to collagen IV/laminin ([1]; biotinylated molecule, matrigel coating, absorbance): 1.1 AU; decrease in HMVEC attachment compared to a BSA blocked collagen surface (HMVEC [3]): 7%; gel vascularity / vascularized gel area [4]: very slight increase in gel vascularity that was not statistically significant over the blank controls

Question: How did the “platelet binding to treated surface” value (platelets) turn out when GRGD [RGD peptide, reference compound] was run?
Answer: The value was “generally supported monocyte and platelet binding”.

Question: And the “monocyte binding to treated surface” value (THP-1 monocytes)?
Answer: The value was “generally supported monocyte and platelet binding”.

From patent US12485182B2, “Proteoglycan mimetics for enhanced wound healing, angiogenesis, and vascular repair” (The Regents of the University of California, priority 2018, dated 2025)
